Source: PMC12677587, “UHRF1 Controls the Timing of RAD51 Removal During DNA Damage Repair Through Suppressing RFWD3” (Advanced Science, 2025)
Values belong to the molecule of their own block, whether it stands above or below them.

What was measured:
RAD51 = RAD51 (UniProt Q06609); assay: co-IP of FLAG-UHRF1 and RAD51-HA; conditions: reference: wild type; sites S661
His-UHRF1 [1] = target: T1, His-UHRF1 (UniProt Q96T88-1 1-793); assay: pull-down; GST pull-down: purified GST-RFWD3 on Glutathione resin, purified His-tagged UHRF1 proteins, 3 h at 4 °C in BCA buffer (20 mM Tris-HCl pH 7.4, 100 mM NaCl); washes with 300 mM NaCl; western blotting; conditions: both partners purified
T1 construct: UHRF1; last residue R793; source: E. coli BL21(DE3), purified (Ni-NTA agarose)
T1 sequence (looked up): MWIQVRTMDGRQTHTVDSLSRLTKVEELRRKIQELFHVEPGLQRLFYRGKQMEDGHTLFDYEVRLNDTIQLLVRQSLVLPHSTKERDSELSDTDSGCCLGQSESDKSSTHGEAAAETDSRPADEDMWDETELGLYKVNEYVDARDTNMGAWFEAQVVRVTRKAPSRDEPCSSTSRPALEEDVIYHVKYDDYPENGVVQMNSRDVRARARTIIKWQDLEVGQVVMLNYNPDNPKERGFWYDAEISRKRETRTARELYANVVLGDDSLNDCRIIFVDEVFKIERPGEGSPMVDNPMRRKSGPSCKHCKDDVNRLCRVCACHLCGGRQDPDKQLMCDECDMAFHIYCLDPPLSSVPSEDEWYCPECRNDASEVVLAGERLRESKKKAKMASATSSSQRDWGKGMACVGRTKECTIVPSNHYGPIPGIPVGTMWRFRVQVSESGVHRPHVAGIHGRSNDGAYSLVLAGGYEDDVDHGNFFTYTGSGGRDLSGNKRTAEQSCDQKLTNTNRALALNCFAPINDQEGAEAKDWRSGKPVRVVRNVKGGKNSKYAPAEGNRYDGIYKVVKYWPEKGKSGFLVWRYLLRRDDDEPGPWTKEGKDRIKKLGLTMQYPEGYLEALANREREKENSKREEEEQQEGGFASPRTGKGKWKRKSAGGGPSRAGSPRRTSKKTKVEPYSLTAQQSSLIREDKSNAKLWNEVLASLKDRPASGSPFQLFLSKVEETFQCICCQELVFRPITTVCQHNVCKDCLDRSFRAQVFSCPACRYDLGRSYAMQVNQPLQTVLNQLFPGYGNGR

His-UHRF1 [2] = target: T1, His-UHRF1; assay: pull-down; GST pull-down: GST-RFWD3 on Glutathione resin precipitating His-UHRF1 with His-RAD51 or His-RAD51^R254Q added; His-tagged proteins detected by western blotting; conditions: both partners purified
GST-UHRF1 = target: T2, GST-UHRF1 (UniProt Q96T88-1 1-793); assay: pull-down; His pull-down: purified His-RAD51 on Ni-chelated beads, GST-UHRF1 with increasing amounts of GST-RFWD3; Binding Buffer A (50 mM Tris-HCl pH 7.5-8.0, 50 mM NaCl), washes with 20 mM imidazole; western blotting; conditions: both partners purified
T2 construct: UHRF1; source: E. coli BL21(DE3), purified (Glutathione resin)
T2 sequence (looked up): T1 sequence (looked up)

binding against the reference (RAD51): stronger
Molecule: UHRF1 (from UniProt Q96T88) S661A

binding result (His-UHRF1 [1]): binds
B1: GST-RFWD3 (natural protein, UniProt Q6PCD5 1-774, looked up)
chain: MAHEAMEYDVQVQLNHAEQQPAPAGMASSQGGPALLQPVPADVVSSQGVPSILQPAPAEVISSQATPPLLQPAPQLSVDLTEVEVLGEDTVENINPRTSEQHRQGSDGNHTIPASSLHSMTNFISGLQRLHGMLEFLRPSSSNHSVGPMRTRRRVSASRRARAGGSQRTDSARLRAPLDAYFQVSRTQPDLPATTYDSETRNPVSEELQVSSSSDSDSDSSAEYGGVVDQAEESGAVILEEQLAGVSAEQEVTCIDGGKTLPKQPSPQKSEPLLPSASMDEEEGDTCTICLEQWTNAGDHRLSALRCGHLFGYRCISTWLKGQVRKCPQCNKKARHSDIVVLYARTLRALDTSEQERMKSSLLKEQMLRKQAELESAQCRLQLQVLTDKCTRLQRRVQDLQKLTSHQSQNLQQPRGSQAWVLSCSPSSQGQHKHKYHFQKTFTVSQAGNCRIMAYCDALSCLVISQPSPQASFLPGFGVKMLSTANMKSSQYIPMHGKQIRGLAFSSYLRGLLLSASLDNTIKLTSLETNTVVQTYNAGRPVWSCCWCLDEANYIYAGLANGSILVYDVRNTSSHVQELVAQKARCPLVSLSYMPRAASAAFPYGGVLAGTLEDASFWEQKMDFSHWPHVLPLEPGGCIDFQTENSSRHCLVTYRPDKNHTTIRSVLMEMSYRLDDTGNPICSCQPVHTFFGGPTCKLLTKNAIFQSPENDGNILVCTGDEAANSALLWDAASGSLLQDLQTDQPVLDICPFEVNRNSYLATLTEKMVHIYKWE
notes: RFWD3 (ring finger and WD repeat domain 3); source: E. coli BL21(DE3), purified (Glutathione resin)

binding result (His-UHRF1 [2]): binds | binding result (GST-UHRF1): binds
B2: His-RAD51 (natural protein, UniProt Q06609 1-339, looked up)
chain: MAMQMQLEANADTSVEEESFGPQPISRLEQCGINANDVKKLEEAGFHTVEAVAYAPKKELINIKGISEAKADKILAEAAKLVPMGFTTATEFHQRRSEIIQITTGSKELDKLLQGGIETGSITEMFGEFRTGKTQICHTLAVTCQLPIDRGGGEGKAMYIDTEGTFRPERLLAVAERYGLSGSDVLDNVAYARAFNTDHQTQLLYQASAMMVESRYALLIVDSATALYRTDYSGRGELSARQMHLARFLRMLLRLADEFGVAVVITNQVVAQVDGAAMFAADPKKPIGGNIIAHASTTRLYLRKGRGETRICKIYDSPCLPEAEAMFAINADGVGDAKD
notes: RAD51 recombinase; also called purified RAD51; source: E. coli BL21(DE3), purified (Ni-NTA agarose)
